# Measured values published in US20170369591.
# Tested on: topoisomerase I
# Sequence (chain, as listed by the source): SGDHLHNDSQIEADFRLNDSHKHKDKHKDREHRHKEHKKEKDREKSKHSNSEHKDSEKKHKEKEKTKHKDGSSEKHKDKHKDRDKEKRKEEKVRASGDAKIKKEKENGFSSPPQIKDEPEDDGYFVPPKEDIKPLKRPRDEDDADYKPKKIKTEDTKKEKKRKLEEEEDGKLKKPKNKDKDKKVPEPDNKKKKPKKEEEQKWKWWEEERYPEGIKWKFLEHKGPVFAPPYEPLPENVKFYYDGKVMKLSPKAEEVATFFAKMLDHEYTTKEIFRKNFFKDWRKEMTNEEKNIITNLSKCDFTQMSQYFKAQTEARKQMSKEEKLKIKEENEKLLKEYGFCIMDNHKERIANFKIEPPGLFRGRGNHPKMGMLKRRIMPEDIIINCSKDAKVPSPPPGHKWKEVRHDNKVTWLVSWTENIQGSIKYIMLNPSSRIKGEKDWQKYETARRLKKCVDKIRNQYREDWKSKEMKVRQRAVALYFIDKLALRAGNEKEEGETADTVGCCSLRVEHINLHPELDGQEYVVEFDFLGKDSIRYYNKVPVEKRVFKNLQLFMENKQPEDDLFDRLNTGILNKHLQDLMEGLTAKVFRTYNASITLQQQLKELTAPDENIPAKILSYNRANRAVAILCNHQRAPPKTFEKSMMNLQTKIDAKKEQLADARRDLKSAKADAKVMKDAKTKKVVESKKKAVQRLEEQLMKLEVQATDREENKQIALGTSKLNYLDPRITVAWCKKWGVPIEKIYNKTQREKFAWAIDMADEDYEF
substance,measurement,value
BRCA1-Flag/BARD1,"in vitro ubiquitination, immunoblot with anti-ubiquitin",showed ubiquitination of topo I by BRCA 1
